Assay results reported in FireProtDB (doi:10.1016/0167-4838(95)00124-d).

Settings: Rattus norvegicus, pH 7.2, Absorbance, MOPS 0.1 M, reversible: Yes; for unfolding free energy / ddG of mutation (higher = less stable): 25 °C, Urea; for Tm / change of melting temperature, mutant - wild type (higher = more stable): Thermal

Chain of Cytochrome c, somatic H27V, P62898 (P62898 whole entry H27V): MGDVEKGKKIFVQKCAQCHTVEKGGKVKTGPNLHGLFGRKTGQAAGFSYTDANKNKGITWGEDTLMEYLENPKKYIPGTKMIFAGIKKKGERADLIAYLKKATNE
Chain of Cytochrome c, somatic P31A|Y68F, P62898 P31A Y68F (P62898 whole entry P31A/Y68F): as the sequence (P62898 whole entry H27V) above, with V27H, P31A, Y68F counted along it
Chain of Cytochrome c, somatic P31A, P62898 (P62898 whole entry P31A): as the sequence (P62898 whole entry H27V) above, with V27H, P31A counted along it
Chain of Cytochrome c, somatic Y68F, P62898 (P62898 whole entry Y68F): as the sequence (P62898 whole entry H27V) above, with V27H, Y68F counted along it
Chain of Cytochrome c, somatic H34F, P62898 (P62898 whole entry H34F): as the sequence (P62898 whole entry H27V) above, with V27H, H34F counted along it
Chain of Cytochrome c, somatic H27V|H34F, P62898 H27V H34F (P62898 whole entry H27V/H34F): as the sequence (P62898 whole entry H27V) above, with H34F counted along it
Chain of Cytochrome c, somatic N53I, P62898 (P62898 whole entry N53I): as the sequence (P62898 whole entry H27V) above, with V27H, N53I counted along it
Chain of Cytochrome c, somatic H27V|N53I, P62898 H27V N53I (P62898 whole entry H27V/N53I): as the sequence (P62898 whole entry H27V) above, with N53I counted along it
Chain of Cytochrome c, somatic wild type, P62898 (P62898 whole entry): as the sequence (P62898 whole entry H27V) above, with V27H counted along it
Chain of Cytochrome c, somatic P31V, P62898 (P62898 whole entry P31V): as the sequence (P62898 whole entry H27V) above, with V27H, P31V counted along it

In the case of “Cytochrome c, somatic P31A|Y68F, P62898 P31A Y68F”, the unfolding free energy (structure 1I5T) is reported as 6.74 kcal/mol, the Tm (structure 1I5T) is reported as 62 °C and the “change of melting temperature, mutant - wild type (higher = more stable)” value (“change of melting temperature, mutant” for short) (structure 1I5T) is reported as 2 °C.
For Cytochrome c, somatic N53I, P62898, the unfolding free energy (structure 1I5T) was 6.36 kcal/mol, the Tm (structure 1I5T) was 80 °C and the “change of melting temperature, mutant” value (structure 1I5T) was 20 °C.
With Cytochrome c, somatic P31V, P62898 the Tm (structure 1I5T) was 49 °C and the “change of melting temperature, mutant” value (structure 1I5T) was -11 °C.
In the case of Cytochrome c, somatic P31A, P62898, the “ddG of mutation (higher = less stable)” value (structure 1I5T) is reported as 5.74 kcal/mol, the unfolding free energy (structure 1I5T) is reported as 3.76 kcal/mol and the Tm (structure 1I5T) is reported as 51 °C. For the same substance, the “change of melting temperature, mutant” value (structure 1I5T) was -9 °C.
For Cytochrome c, somatic H34F, P62898, the “ddG of mutation (higher = less stable)” value (structure 1I5T) was -0.67 kcal/mol, the unfolding free energy (structure 1I5T) was 10.2 kcal/mol and the Tm (structure 1I5T) was 69 °C.
With “Cytochrome c, somatic H27V|N53I, P62898 H27V N53I” the “ddG of mutation (higher = less stable)” value (structure 1I5T) was 1.86 kcal/mol and the unfolding free energy (structure 1I5T) was 7.64 kcal/mol.
In the case of Cytochrome c, somatic wild type, P62898, the unfolding free energy is reported as 9.5 kcal/mol and the Tm is reported as 60 °C.
In the case of Cytochrome c, somatic Y68F, P62898, the unfolding free energy (structure 1I5T) is reported as 7.19 kcal/mol, the Tm (structure 1I5T) is reported as 90 °C and the “change of melting temperature, mutant” value (structure 1I5T) is reported as 30 °C.
In the case of Cytochrome c, somatic H27V, P62898, the “ddG of mutation (higher = less stable)” value (structure 1I5T) is reported as 3.78 kcal/mol, the unfolding free energy (structure 1I5T) is reported as 5.72 kcal/mol and the Tm (structure 1I5T) is reported as 50 °C. The “change of melting temperature, mutant” value (structure 1I5T) was -10 °C.
With “Cytochrome c, somatic H27V|H34F, P62898 H27V H34F” the “ddG of mutation (higher = less stable)” value (structure 1I5T) was 2.15 kcal/mol, the unfolding free energy (structure 1I5T) was 7.35 kcal/mol and the Tm (structure 1I5T) was 53 °C. For the same substance, the “change of melting temperature, mutant” value (structure 1I5T) was -7 °C.
